Values belong to the binder of their own block, whether it stands above or below them.
Legend:
[1] = molecular target: RadA-EL2 (extracellular loop 2 of connexin43 grafted into the monomeric ATPase domain of Pyrococcus furiosus … (Pyrococcus furiosus | , Only the grafted connexin43 EL2 loop (the binding part) is given. It was displayed on the His-tagged monomeric RadA ATPase domain of Pyrococcus furiosus, treated here as a carrier. The scaffold limits)); test: SPR; Biacore T200; his-tagged RadA-EL2 captured on NTA surface (about 200 RU) as ligand, Gap26 injected as analyte at 30 µL/min; 30 °C; 50 mM HEPES pH 7.5, 500 mM NaCl, 0.005% Tween-20, 0.1 mM TCEP; reference channel without nickel; 1:1 binding model; details: both partners purified
[2] = molecular target: RadA-EL1 (extracellular loop 1 of connexin43 grafted into the monomeric ATPase domain of Pyrococcus furiosus … (Pyrococcus furiosus | , Only the grafted connexin43 EL1 loop (the binding part) is given. It was displayed on the His-tagged monomeric RadA ATPase domain of Pyrococcus furiosus, treated here as a carrier. The scaffold limits)); test: SPR; Biacore T200; his-tagged RadA-EL1 captured on NTA surface (about 200 RU) as ligand, Gap27 injected as analyte at 30 µL/min; 25 °C; 50 mM HEPES pH 7.5, 500 mM NaCl, 0.005% Tween-20; reference channel without nickel; 1:1 binding model; details: both partners purified
Chain of RadA-EL1 (extracellular loop 1 of connexin43 grafted into the monomeric ATPase domain of Pyrococcus furiosus … (Pyrococcus furiosus | , Only the grafted connexin43 EL1 loop (the binding part) is given. It was displayed on the His-tagged monomeric RadA ATPase domain of Pyrococcus furiosus, treated here as a carrier. The scaffold limits)) (chain, as listed by the source): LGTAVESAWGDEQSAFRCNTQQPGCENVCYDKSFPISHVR

Chain of RadA-EL2 (extracellular loop 2 of connexin43 grafted into the monomeric ATPase domain of Pyrococcus furiosus … (Pyrococcus furiosus | , Only the grafted connexin43 EL2 loop (the binding part) is given. It was displayed on the His-tagged monomeric RadA ATPase domain of Pyrococcus furiosus, treated here as a carrier. The scaffold limits)) (chain, as listed by the source): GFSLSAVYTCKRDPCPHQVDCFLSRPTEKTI

Kd [1]: 8 µM | koff [1]: 0.0043 s⁻¹
B1: Gap26 (peptide)
peptide: VCYDKSFPISHVR
notes: connexin43 mimetic peptide, 13 amino acids, analogue of the first extracellular loop (EL1) of connexin43; The peptide was tested on the RadA-EL2 construct; also called G26; connexin mimetic peptide Gap26; source: bought: Pepnome Inc., Hong Kong (peptide)

Kd [2]: 6 µM | koff [2]: 0.061 s⁻¹
B2: Gap27 (peptide)
peptide: SRPTEKTIFII
notes: connexin43 mimetic peptide, 11 amino acids, analogue of the second extracellular loop (EL2) of connexin43; The peptide was tested on the RadA-EL1 construct; also called G27; connexin mimetic peptide Gap27; source: bought: Pepnome Inc., Hong Kong (peptide)

From article PMC9456187, “The Ambivalence of Connexin43 Gap Peptides in Cardioprotection of the Isolated Heart against Ischemic Injury” (International Journal of Molecular Sciences, 2022)
